Reference: the supplement of paper PMC7877785
± gives the uncertainty stated by the source.

Test: self-splicing fitness, log relative to wild type (ln ratio); higher = more splicing; Tetrahymena group I intron in knt gene, E. coli kanamycin selection, DiMSum; sequences stand for … in CUCUCU…GGAGGGAAAAGUUAUCAGGCAUGCACCUGGUAGCUAGUCUUUAAACCAAUAGAUUGCAUCGGUUUAAAAGGCAAGACCGUCAAAUUGCGGGAAAGGGGUCAACAGCCGUUCAGUACCAAGUCUCAGGGGAAACUUUGAGAUGGCCUUGCAAAGGGUAUGGUAAUAAGCUGACGGACAUGGUCCUAACCACGCAGCCAAGUCCUAAGUCAACAGAUCUUCUGUUGAUAUGGAUGCAGUUCACAGACUAAAUGUCGGUCGGGGAAGAUGUAUUCUUCUCAUAAGAUAUAGUCGGACCUCUCCUUAAUGGGAGCUAGCGGAUGAAGUGAUGCAACACUGGAGCCGCUGGGAACUAAUUUGUAUGCGAAAGUAUAUUGAUUAGUUUUGGAGUACUCGUGGUCG
Method in brief: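 Library with all eight P1ex-region intron nucleotides randomised, intron inside the knt kanamycin-resistance gene on pET-22b(+), in E. coli BL21(DE3). Cells grew overnight at 37°C or 30°C on LB agar with or without 25 μg/mL kanamycin (plus 100 μg/mL carbenicillin, 50 μM IPTG, 0.2% rhamnose), in six replicate transformations. Pooled colonies were amplicon-sequenced on Illumina HiSeq 2500. DiMSum fitness is the error-weighted combination of wild-type-normalised replicate fold changes, kanamycin versus none.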

Row | Sequence | self-splicing fitness (ln) (30 °C) | self-splicing fitness (ln) (37 °C)
1 | ACUUAGCAAUAUUACGUUAC | -3.55 ± 0.26 | -2.55 ± 0.38
2 | UCCUAGCAAUAUUACGUCAC | -1.97 ± 0.2 | -2.6 ± 0.27
3 | GGUGAGCAAUAUUACGUGAG | -2.73 ± 0.19 | -1.76 ± 0.21
4 | CAGUAGCAAUAUUACGCGGC | -2.92 ± 0.32 | -2.14 ± 0.5
5 | GCGGAGCAAUAUUACGUUUG | -2.86 ± 0.17 | -2.48 ± 0.27
6 | UAGUAGCAAUAUUACGAGAU | -2.69 ± 0.13 | -2.32 ± 0.19
7 | GGAGAGCAAUAUUACGUACG | -2.56 ± 0.43 | –
8 | UGCAAGCAAUAUUACGUAUC | -3.22 ± 0.2 | -1.14 ± 0.15
9 | AGAGAGCAAUAUUACGACUA | -2.42 ± 0.44 | –
10 | UCGUAGCAAUAUUACGGGGG | -3.07 ± 0.44 | -2 ± 0.47
11 | CUCCAGCAAUAUUACGCGCU | -4.33 ± 0.26 | -2.2 ± 0.2
12 | AUACAGCAAUAUUACGGCGG | -1.19 ± 0.095 | -0.617 ± 0.12
13 | CUCAAGCAAUAUUACGCAGU | -3.28 ± 0.18 | -2.32 ± 0.22
14 | AUGAAGCAAUAUUACGAGUA | -2.12 ± 0.079 | -0.848 ± 0.088
15 | AAUCAGCAAUAUUACGCCUG | -0.906 ± 0.17 | 0.165 ± 0.18
16 | CUUAAGCAAUAUUACGGUCC | -1.36 ± 0.29 | –
17 | UCGCAGCAAUAUUACGACUG | -1.93 ± 0.14 | -2.7 ± 0.25
18 | UAUUAGCAAUAUUACGAGAG | -3.48 ± 0.26 | -3.11 ± 0.29
19 | UGGUAGCAAUAUUACGUGUU | -3.24 ± 0.28 | -1.82 ± 0.29
20 | AGUUAGCAAUAUUACGAUCU | -0.0546 ± 0.1 | 0.11 ± 0.13
21 | CGCCAGCAAUAUUACGCACG | -1.66 ± 0.11 | -1.47 ± 0.17
22 | UACGAGCAAUAUUACGCUUC | -2.53 ± 0.25 | -1.32 ± 0.3
23 | GAGUAGCAAUAUUACGAGCG | -2.04 ± 0.075 | -0.489 ± 0.077
24 | GACCAGCAAUAUUACGUUAG | -3.82 ± 0.24 | -2.79 ± 0.2
25 | GAUAAGCAAUAUUACGAGAU | -3.66 ± 0.21 | -2.14 ± 0.21
26 | CCCAAGCAAUAUUACGCAUA | -3.47 ± 0.19 | -2.49 ± 0.17

Row | Sequence | self-splicing fitness (ln) (30 °C) | self-splicing fitness (ln) (37 °C)
27 | GGGCAGCAAUAUUACGUGGA | -2.81 ± 0.11 | -1.62 ± 0.099
28 | AUAAAGCAAUAUUACGGCGG | -0.248 ± 0.062 | -0.197 ± 0.077
29 | CCAUAGCAAUAUUACGGCAU | -4.02 ± 0.24 | -1.78 ± 0.2
30 | AUCCAGCAAUAUUACGCCGC | -4.25 ± 0.46 | -2.58 ± 0.38
31 | ACGGAGCAAUAUUACGACUG | -1.95 ± 0.14 | -0.681 ± 0.13
32 | UUUAAGCAAUAUUACGAUUG | -1.36 ± 0.15 | -1.12 ± 0.16
33 | AGCAAGCAAUAUUACGGGAU | -2.79 ± 0.098 | -1.15 ± 0.081
34 | CGACAGCAAUAUUACGUCAC | -3.14 ± 0.14 | -2.19 ± 0.16
35 | UUCCAGCAAUAUUACGGACC | -1.77 ± 0.14 | -0.818 ± 0.16
36 | CCUUAGCAAUAUUACGAAAU | -3.26 ± 0.29 | -2.12 ± 0.31
37 | GGAGAGCAAUAUUACGGACG | – | -1.27 ± 0.31
38 | CGAGAGCAAUAUUACGAAUG | -2.96 ± 0.2 | -2.03 ± 0.21
39 | UUUGAGCAAUAUUACGCGUA | – | 0.0632 ± 0.24
40 | AAGCAGCAAUAUUACGAACA | -1.56 ± 0.13 | -0.603 ± 0.13
41 | GCAAAGCAAUAUUACGGUUC | -2.17 ± 0.089 | -0.948 ± 0.11
42 | UUUCAGCAAUAUUACGAUUA | 0.327 ± 0.096 | 0.0465 ± 0.088
43 | CGACAGCAAUAUUACGCAAA | -3.94 ± 0.31 | -3.08 ± 0.22
44 | AAACAGCAAUAUUACGAACC | -2.56 ± 0.18 | -0.124 ± 0.17
45 | AAAUAGCAAUAUUACGGACU | 0.0218 ± 0.068 | 0.206 ± 0.091
46 | ACUGAGCAAUAUUACGCGCA | -3.04 ± 0.42 | -1.66 ± 0.36
47 | GUUUAGCAAUAUUACGAACA | -2.02 ± 0.39 | -1.24 ± 0.26
48 | CAGCAGCAAUAUUACGAUUU | -3.59 ± 0.17 | -1.91 ± 0.15
49 | CGUAAGCAAUAUUACGGGAG | -2.21 ± 0.22 | -2.81 ± 0.36
50 | CGAUAGCAAUAUUACGGUGU | -2.7 ± 0.11 | -1.06 ± 0.095
51 | ACACAGCAAUAUUACGAACU | -0.798 ± 0.05 | -0.493 ± 0.068
52 | GUGGAGCAAUAUUACGGUGC | -2.76 ± 0.24 | -1.93 ± 0.25

Row | Sequence | self-splicing fitness (ln) (30 °C) | self-splicing fitness (ln) (37 °C)
53 | CGAAAGCAAUAUUACGAGGG | -3.66 ± 0.14 | -2.17 ± 0.13
54 | GGAUAGCAAUAUUACGCAGA | -2.53 ± 0.25 | -1.58 ± 0.21
55 | CGGAAGCAAUAUUACGGAGU | -4.49 ± 0.39 | -2.12 ± 0.2
56 | AUGCAGCAAUAUUACGACUU | 0.39 ± 0.068 | 0.224 ± 0.075
57 | CCAUAGCAAUAUUACGUUAU | -3.34 ± 0.14 | -3.31 ± 0.21
58 | UCUGAGCAAUAUUACGCGUU | -4.91 ± 0.45 | -2.63 ± 0.28
59 | GCCAAGCAAUAUUACGGAUC | -0.959 ± 0.071 | -0.179 ± 0.098
60 | GGAAAGCAAUAUUACGACAA | -1.71 ± 0.12 | -1 ± 0.14
61 | GAAGAGCAAUAUUACGUACG | -3.52 ± 0.25 | -2.15 ± 0.22
62 | GACCAGCAAUAUUACGGUAG | -0.241 ± 0.066 | 0.668 ± 0.085
63 | AGUCAGCAAUAUUACGCCAA | -2.75 ± 0.34 | -0.963 ± 0.2
64 | CCAGAGCAAUAUUACGAGAU | -4.57 ± 0.2 | -3.15 ± 0.16
65 | ACGGAGCAAUAUUACGUACG | -2.38 ± 0.45 | –
66 | ACGCAGCAAUAUUACGUAGU | -2.76 ± 0.087 | -1.92 ± 0.1
67 | AACUAGCAAUAUUACGGAUU | -1.16 ± 0.088 | -0.792 ± 0.1
68 | UUAAAGCAAUAUUACGGACU | -0.204 ± 0.096 | -0.0989 ± 0.11
69 | GCCAAGCAAUAUUACGAUGG | -3.61 ± 0.15 | -1.79 ± 0.16
70 | CCGCAGCAAUAUUACGCGCU | -3.09 ± 0.21 | -2.01 ± 0.23
71 | CUACAGCAAUAUUACGUCUU | -4.14 ± 0.24 | -3.48 ± 0.25
72 | GAUCAGCAAUAUUACGAUCC | -3.69 ± 0.37 | -2.18 ± 0.39
73 | ACCCAGCAAUAUUACGUUUU | -1.41 ± 0.048 | -0.336 ± 0.066
74 | CUGCAGCAAUAUUACGUGGC | -3.72 ± 0.21 | -3.03 ± 0.24
75 | GACAAGCAAUAUUACGUUGC | -3.63 ± 0.14 | -2.31 ± 0.16
76 | GCUCAGCAAUAUUACGGCCG | -3.86 ± 0.27 | -2.15 ± 0.27
77 | ACUAAGCAAUAUUACGGAGA | -1.36 ± 0.23 | -3.35 ± 0.33
78 | GCUUAGCAAUAUUACGGUAG | -2.53 ± 0.4 | –
